Test: soluble on expression in E. coli; label from the status in PepcDB or PDB records

Row | Sequence | soluble on expression in E. coli
1 | MPGPILKKCFNCRVALPEDAINTAQCQKCQKNEAKYGKPGTCQYCKLNAAFHDQKCVWCSHAERKFGNPFPCANCKLSCAFPRRESDKVEGAALLCRLCILQARHTNQTVVAGIPVPPEKPERSGEGSSTEQRDRDHRQHRPTSHHHRDHKDHHRRDDKHHHRDSNHRHAHKRRHQEEPNNNSNNGTSSSGGAPPLVPNNENGNGFPPFGDRDPGESMVKQQKMEDEIRRLKTLLAEKDQLIFDKDKQISNLKADQYNLDKKHRERVQQLIKEKEDSIRAIEQMRNSKSSKRN | not soluble
2 | MPGSDAGPRRRGVHEQRRNRMSNEAKCPFHQAAQNGTSNRDWWPNQLDLSILHRHSSLSDPMGKDFNYAQAFEKLDLAAVKRDLHALMTTSQDWWPADFGHYGGLFIRMAWHSAGTYRTADGRGGAGEGQQRFAPLNSWPDNANLDKARRLLWPIKQKYGRAISWADLLILTGNVALESMGFKTFGFAGGRADTWEPEDVYWGSEKIWLELSGGPNSRYSGDRQLENPLAAVQMGLIYVNPEGPDGNPDPVAAARDIRDTFARMAMNDEETVALIAGGHTFGKTHGAGPASNVGAEPEAAGIEAQGLGWKSAYRTGKGADAITTGLEVTWTTTPTQWSHNFFENLFGYEWELTKSPAGAHQWVAKGADAVIPDAFDPSKKHRPTMLTTDLSLRFDPAYEKISRRFHENPEQFADAFARAWFKLTHRDMGPRARYLGPEVPAEVLLWQDPIPAVDHPLIDAADAAELKAKVLASGLTVSQLVSTAWAAASTFRGSDKRGGANGARIRLAPQKDWEANQPEQLAAVLETLEAIRTAFNGAQRGGKQVSLADLIVLAGCAGVEQAAKNAGHAVTVPFAPGRADASQEQTDVESMAVLEPVADGFRNYLKGKYRVPAEVLLVDKAQLLTLSAPEMTVLLGGLRVLGANVGQSRHGVFTAREQALTNDFFVNLLDMGTEWKPTAADADVFEGRDRATGELKWTGTRVDLVFGSHSQLRALAEVYGSADAQEKFVRDFVAVWNKVMNLDRFDLA | soluble
3 | MPKNKGKGGKNRRRGKNENDFMKRELDLKEEGQEYGQVSKMLGNGRVQVFCFDGKQRVCHIRGKLRKKVWINVGDIILVGLRDYQDDKGDVILKYTPDEARRLKNEGLIPENAKLNENDEQDEGEVEFLDHVGDEGEAGEAKSDSDSSDSDSEKSDEEAGSDKEEESDDDSEEESDEDSDDSDNIREEDLAAGRGFKEDTRRGGNRGGKNKYGKRR | soluble
4 | MPKSAKRRASQPTGAETLVVVESPAKARSIQKMLGPGYEVRASLGHVVDLPERSLGVDVERDFAPTYEVKKDKKPVVEELKRAAEGKRLLIATDPDREGEAIGWHVARLLGRDPKEPLRVEFHEITPRVVRQAVEAPRPIDQNLVDAQQARRVLDRLLGYNLSPLLSLEFRKRALSAGRVQSVALRLVVEREEAIEAFRPEEYWVLRGVFAVEGGEAPLVATLHEVEGKRLWTGQGEKEGRLHLASEAEAHALAEALRKGSYRVAQVEVRERRKAPPPPFTTSTLQQAASSRLGYTAARTMRIAQRLYEGVDLPEGTVGLITYMRTDSVRVAPEAVAAAREVIGKAFGPEYLPEAPRAYKNRREGVQDAHEAIRPTDPKRTPESVRPYLSEEEYRLYELIWRRFLASQMRDALYEQTAVTLADLEGRYAFRASGSVLRFEGYLRAWGRDAEEEEEPPVPAVPEGVPARLEEVLEERRFTEPPPRYTDASLVKTMEELGIGRPSTYAPTLETLEKRGYVARKGRTLFPTPLGRQVTAYLRERFPQVVAYEFTARMEERLDEVEEGRVPWPKVVWEFYEPFLGELAQVPKKTCPRCGRPLELKVSRYGQFLGCTGYPECTYTEPLERREAEPIGEACPKCGRPLLRKEGRYGTFIACSGYPECDYTRDDGTPTGHTCPKCGGRVLEKRSRKGRPYYKCENNACDFLSFYPLLEEACPACGWPLVKKGEKALCLNPACPEHEPSLLPAPKEAKKGRSRGKGKPPLAPPKDWEELVPFLPGLSPEERRAVEALARGEALARGEALAEEEARLARRALFKLRMRKGKARKEPVRA | soluble
5 | MPKTEDKYLPLMSKEKIEKALAFHKSFPQYSETPLAELNHMAAYLGLNDFFVKDESYRFGLNAFKVLGGSFAMANYIAEKLKKDVSELTYDELTSDQLRSAFGQATFFTATDGNHGRGVAWAANKLGQKSVVLMPKGSTQTRKENIEKEGATVTIEEVNYDECVRMANKMAEETENGVMVQDTAWDGYEKIPTWIMQGYGTMALEASQQLRKFGSERPSHVFVQAGVGSLAGAVIGYFANAFPENPPIMVVVEAQAADCLYQSAIKKDGEIRFVDGDLQTIMAGLACGEPNTISFDILKNHTSFFVSAPDWVSEKGMRMLGAPLKGDPQVVSGESGAVAMGLVATVMQDPDYQELHEALQLDETSNVLMFSTEGDTDPDNYKKILWR | not soluble
6 | MPLLGLLPRRAWASLLSQLLRPPCASCTGAVRCQSQVAEAVLTSQLKAHQEKPNFIIKTPKGTRDLSPQHMVVREKILDLVISCFKRHGAKGMDTPAFELKETLTEKYGEDSGLMYDLKDQGGELLSLRYDLTVPFARYLAMNKVKKMKRYHVGKVWRRESPTIVQGRYREFCQCDFDIAGQFDPMIPDAECLKIMCEILSGLQLGDFLIKVNDRRIVDGMFAVCGVPESKFRAICSSIDKLDKMAWKDVRHEMVVKKGLAPEVADRIGDYVQCHGGVSLVEQMFQDPRLSQNKQALEGLGDLKLLFEYLTLFGIADKISFDLSLARGLDYYTGVIYEAVLLQTPTQAGEEPLNVGSVAAGGRYDGLVGMFDPKGHKVPCVGLSIGVERIFYIVEQRMKTKGEKVRTTETQVFVATPQKNFLQERLKLIAELWDSGIKAEMLYKNNPKLLTQLHYCESTGIPLVVIIGEQELKEGVIKIRSVASREEVAIKRENFVAEIQKRLSES | soluble
7 | MPLPPDITFDSLALIKMHSQNMKRILEVTLAKFTVNLSIVTVYRYLTARAYLKKNIEAEFEILKDIYNIVPLLDDIAIKAAQIEANLIKKEITLDMEDIITATTAIYTNSLLVTDDPKRYEPIRRFGLDTMPLDKFIKEVELMVEKELI | soluble
8 | MPLPSFLEVYEGLISTSSISSTDARWDEGNEQVIAKLADWLSALGFSIQIEQVAPNKQNLIAKLGSGEGGLLLAGHSDTVPFDEGRWNYNPHALTQVNNRFYGLGTADMKGFFAFIYEAVKNVDWSKQTKPLYVLATCDEETTMLGARHFTENAPFKPDYCIIGEPTSLVPIRAHKGHVANAIRVTGKSGHSSNPALGVNAIEIMHEVLFALMQLRDRLIKEYHHPGFEIPTPTLNLGHIHGGDSPNRICGCCELHYDVRPLPGISLDGLDNLMHDALREVQQKWPGRIELVPLHDPIPGYECAHDHPFIHGISEICEQEAQTVNYCTEAPFLQQVCPTLVLGPGSIDQAHQPDEFLAFEFIDPTVRVLSRAMQKYCF | soluble
9 | MPLQQTLGVDCQTAADAGGEPHCFAGPVRERRMDSVLVIGGGRFIGRHTVTEFRDAGYDVTMLTRGRRQNPFTNAEVAHIEGDRRERDTLETARERVNPDVVVDCVAYFPEDVRVATDVFADVGAYVYISSGAAYGAERTPKREGETPLAGCTAEQATTDSAETYGPRKAEGDREVFAAAEDGVQAMSVRPTVVYGPYDYTERFAYWVDRVAEYDRVVVPSDGLSLWQMAYVEDVASALRLVAERGTAGEAYNVGDEHAPTLREWVDLLARVHETDVETIGVGERELRAAGLAPDDFPIYRDSPHLLSTAKLRGLGWSSTPHETALAVTVAEHLENDRTGREFGPDRDTEAALIDRLTE | not soluble
10 | MPLRILHTSDWHLGRSLFGRSRLHEFEAFLDWLAGTVESRGIELLVVAGDIFDTTTPGNATQKLYYQFLNRIALTPGSPCRHVVITSGNHDSPTFLDAPKELLRAFDVHVLGATTGDPADEVRLLRDRQGSPEAIVCAVPFLRDRDIRTVEPGESLEDKIRKLSDGVSLHYAEVARIAAERRRSLGADIPVIAMGHLFTAGCVTVEEDGVREIYAGALSIVCSTAFPPVFDYVALGHMHVPQRVDKTEHMRYCGSPIPMGFGEAKQQKLVLQVDFEGREPTVTEIEVPCFQPLERLAGSLDELSAAIAALRSAGSNAWLEIDYRGDEAPATVQEAMEQAVAGSLLEIRRIRNNRPLQQALRHSAANETLQQLDPEAVFNRCLEAYGTDESLRPALVESYREVLRSIREEDVMAEKEGKS | not soluble
11 | MPLRQDLTPVVITVTGADRHGVTAATFRVLSANNVQILDVEQSKFRGFLSIAVYAGIKASMIDSVEQGLRDTLSVHGQSVSLSVESRTEVSRPRSTHVVVILGNPVGAEDIWKIGQTMADFGANIDGIRGISDYPVTGLELRVTVADPAPGAAEPLRKALAALTTELGVDIVIERAGLQR | not soluble
